Assay results published in the Immune Epitope Database (IEDB).

What was measured:
HLA-B*07:02 = experiment: IEDB peptide-MHC binding, purified MHC/direct/fluorescence; filed as Kd, often an IC50 or EC50 that approximates it; ≥ and ≤ were set here for values at or beyond the usual limits of such assays; settings: source organism: Vibrio vulnificus
HLA-A*01:01 = experiment: as above; settings: source organism: Vibrio vulnificus
HLA-A*31:01 = experiment: as above; settings: source organism: Vibrio vulnificus
HLA-B*08:03 = experiment: as above; settings: source organism: Vibrio vulnificus CMCP6
HLA-B*15:01 = experiment: as above; settings: source organism: Vibrio vulnificus
HLA-B*27:05 = experiment: as above; settings: source organism: Vibrio vulnificus
HLA-B*46:01 = experiment: as above; settings: source organism: Vibrio vulnificus
HLA-B*57:01 = experiment: as above; settings: source organism: Vibrio vulnificus
HLA-A*68:02 = experiment: as above; settings: source organism: Vibrio vulnificus
HLA-B*15:09 = experiment: as above; settings: source organism: Vibrio vulnificus CMCP6
HLA-A*26:01 = experiment: as above; settings: source organism: Vibrio vulnificus CMCP6
HLA-A*02:01 = experiment: as above; settings: source organism: Vibrio vulnificus
HLA-B*15:02 = experiment: as above; settings: source organism: Vibrio vulnificus CMCP6
HLA-B*58:01 = experiment: as above; settings: source organism: Vibrio vulnificus
HLA-A*69:01 = experiment: as above; settings: source organism: Vibrio vulnificus
HLA-A*03:01 = experiment: as above; settings: source organism: Vibrio vulnificus
HLA-B*48:01 = experiment: as above; settings: source organism: Vibrio vulnificus
HLA-B*15:17 = experiment: as above; settings: source organism: Vibrio vulnificus
HLA-A*11:01 = experiment: as above; settings: source organism: Vibrio vulnificus
HLA-A*32:07 = experiment: IEDB peptide-MHC binding, purified MHC/competitive/fluorescence; filed as Kd, often an IC50 or EC50 that approximates it; ≥ and ≤ were set here for values at or beyond the usual limits of such assays; settings: source organism: Vibrio vulnificus YJ016
HLA-B*08:01 = experiment: as above; settings: source organism: Vibrio vulnificus YJ016
HLA-B*83:01 = experiment: as above; settings: source organism: Vibrio vulnificus YJ016
HLA-B*15:42 = experiment: as above; settings: source organism: Vibrio vulnificus YJ016
HLA-B*40:13 = experiment: as above; settings: source organism: Vibrio vulnificus YJ016
HLA-B*39:01 = experiment: as above; settings: source organism: Vibrio vulnificus YJ016
HLA-A*30:01 = experiment: as above; settings: source organism: Vibrio vulnificus YJ016
HLA-B*45:06 = experiment: as above; settings: source organism: Vibrio vulnificus YJ016
HLA-A*02:03 = experiment: as above; settings: source organism: Vibrio vulnificus YJ016
HLA-B*27:20 = experiment: as above; settings: source organism: Vibrio vulnificus YJ016

In the case of YQRALHTSI, the Kd (HLA-B*07:02) is reported as 7060 nM, the Kd (HLA-A*01:01) is reported as ≥ 20000 nM and the Kd (HLA-A*31:01) is reported as ≥ 20000 nM. It also gave a Kd (HLA-B*08:03) of 55 nM, a Kd (HLA-B*15:01) of 96.2 nM and a Kd (HLA-B*27:05) of 2050 nM. The Kd (HLA-B*46:01) was ≥ 20000 nM, the Kd (HLA-B*57:01) was ≥ 20000 nM and the Kd (HLA-A*68:02) was ≥ 20000 nM. For the same sequence, the Kd (HLA-B*15:09) was ≥ 20000 nM, the Kd (HLA-A*26:01) was ≥ 20000 nM and the Kd (HLA-A*02:01) was ≥ 20000 nM. The Kd (HLA-B*15:02) was 306 nM, the Kd (HLA-B*58:01) was ≥ 20000 nM and the Kd (HLA-A*69:01) was ≥ 20000 nM. For the same sequence, the Kd (HLA-A*03:01) was ≥ 20000 nM, the Kd (HLA-B*48:01) was 58.6 nM and the Kd (HLA-B*15:17) was 130 nM. For the same sequence, the Kd (HLA-A*11:01) was ≥ 20000 nM, the Kd (HLA-A*32:07) was 454 nM and the Kd (HLA-B*08:01) was 292 nM. For the same sequence, the Kd (HLA-B*83:01) was ≥ 5000 nM, the Kd (HLA-B*15:42) was ≥ 20000 nM and the Kd (HLA-B*40:13) was 60.8 nM. For the same sequence, the Kd (HLA-B*39:01) was 395 nM, the Kd (HLA-A*30:01) was 1120 nM and the Kd (HLA-B*45:06) was ≥ 5000 nM. For the same sequence, the Kd (HLA-A*02:03) was 2.1 nM and the Kd (HLA-B*27:20) was 0.2 nM.
